The text below walks through data of patent US20250368745A1 (published 2025).

First the molecules themselves.
T1: human IL-18BP (human, UniProt O95998 31-194)
T1 construct: UniProt printed as 095998; also called hIL-18BP
T1 sequence: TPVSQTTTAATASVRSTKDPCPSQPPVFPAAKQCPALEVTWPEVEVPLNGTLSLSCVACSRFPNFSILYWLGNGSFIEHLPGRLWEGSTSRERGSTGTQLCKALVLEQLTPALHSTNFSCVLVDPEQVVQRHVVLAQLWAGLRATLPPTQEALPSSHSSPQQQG

B1: SA301a HC-N58R (antibody, name in Kabat numbering, V domains shown)
VH: QVQLQESGPGLVKPSQTLSLTCTVSGYSITSDYNSHWIRQPPGKGLEWIGYIHYSGSTRYNPSLKSRVTISRDTSKNQFSLKLSSVTAADTAVYYCARNYGSIYVNYFDYWGQGTLVTVSS
VL: EIVLTQSPATLSLSPGERATLSCSASSSVSYMYWYQQKPGQAPRPLIYRTSNLASGIPARFSGSGSGTDFTLTISSLEPEDFAVYYCQQYHSYPTFGGGTKVEIK
notes: IgG1 kappa
B2: SA301a HC-S54F (antibody, name in Kabat numbering, V domains shown)
VH: QVQLQESGPGLVKPSQTLSLTCTVSGYSITSDYNSHWIRQPPGKGLEWIGYIHYFGSTNYNPSLKSRVTISRDTSKNQFSLKLSSVTAADTAVYYCARNYGSIYVNYFDYWGQGTLVTVSS
VL: EIVLTQSPATLSLSPGERATLSCSASSSVSYMYWYQQKPGQAPRPLIYRTSNLASGIPARFSGSGSGTDFTLTISSLEPEDFAVYYCQQYHSYPTFGGGTKVEIK
notes: IgG1 kappa
B3: SA301a HC-S56L (antibody, name in Kabat numbering, V domains shown)
VH: QVQLQESGPGLVKPSQTLSLTCTVSGYSITSDYNSHWIRQPPGKGLEWIGYIHYSGLTNYNPSLKSRVTISRDTSKNQFSLKLSSVTAADTAVYYCARNYGSIYVNYFDYWGQGTLVTVSS
VL: EIVLTQSPATLSLSPGERATLSCSASSSVSYMYWYQQKPGQAPRPLIYRTSNLASGIPARFSGSGSGTDFTLTISSLEPEDFAVYYCQQYHSYPTFGGGTKVEIK
notes: IgG1 kappa
B4: SA301a HC-S56A (antibody, name in Kabat numbering, V domains shown)
VH: QVQLQESGPGLVKPSQTLSLTCTVSGYSITSDYNSHWIRQPPGKGLEWIGYIHYSGATNYNPSLKSRVTISRDTSKNQFSLKLSSVTAADTAVYYCARNYGSIYVNYFDYWGQGTLVTVSS
VL: EIVLTQSPATLSLSPGERATLSCSASSSVSYMYWYQQKPGQAPRPLIYRTSNLASGIPARFSGSGSGTDFTLTISSLEPEDFAVYYCQQYHSYPTFGGGTKVEIK
notes: IgG1 kappa
B5: SA301a HC-N58S (antibody, name in Kabat numbering, V domains shown)
VH: QVQLQESGPGLVKPSQTLSLTCTVSGYSITSDYNSHWIRQPPGKGLEWIGYIHYSGSTSYNPSLKSRVTISRDTSKNQFSLKLSSVTAADTAVYYCARNYGSIYVNYFDYWGQGTLVTVSS
VL: EIVLTQSPATLSLSPGERATLSCSASSSVSYMYWYQQKPGQAPRPLIYRTSNLASGIPARFSGSGSGTDFTLTISSLEPEDFAVYYCQQYHSYPTFGGGTKVEIK
notes: IgG1 kappa
B6: SA301a HC-S56K (antibody, name in Kabat numbering, V domains shown)
VH: QVQLQESGPGLVKPSQTLSLTCTVSGYSITSDYNSHWIRQPPGKGLEWIGYIHYSGKTNYNPSLKSRVTISRDTSKNQFSLKLSSVTAADTAVYYCARNYGSIYVNYFDYWGQGTLVTVSS
VL: EIVLTQSPATLSLSPGERATLSCSASSSVSYMYWYQQKPGQAPRPLIYRTSNLASGIPARFSGSGSGTDFTLTISSLEPEDFAVYYCQQYHSYPTFGGGTKVEIK
notes: IgG1 kappa
B7: SA301a HC-S56E (antibody, name in Kabat numbering, V domains shown)
VH: QVQLQESGPGLVKPSQTLSLTCTVSGYSITSDYNSHWIRQPPGKGLEWIGYIHYSGETNYNPSLKSRVTISRDTSKNQFSLKLSSVTAADTAVYYCARNYGSIYVNYFDYWGQGTLVTVSS
VL: EIVLTQSPATLSLSPGERATLSCSASSSVSYMYWYQQKPGQAPRPLIYRTSNLASGIPARFSGSGSGTDFTLTISSLEPEDFAVYYCQQYHSYPTFGGGTKVEIK
notes: IgG1 kappa
B8: SA301a HC-S56I (antibody, name in Kabat numbering, V domains shown)
VH: QVQLQESGPGLVKPSQTLSLTCTVSGYSITSDYNSHWIRQPPGKGLEWIGYIHYSGITNYNPSLKSRVTISRDTSKNQFSLKLSSVTAADTAVYYCARNYGSIYVNYFDYWGQGTLVTVSS
VL: EIVLTQSPATLSLSPGERATLSCSASSSVSYMYWYQQKPGQAPRPLIYRTSNLASGIPARFSGSGSGTDFTLTISSLEPEDFAVYYCQQYHSYPTFGGGTKVEIK
notes: IgG1 kappa
B9: SA301a HC-S56R (antibody, name in Kabat numbering, V domains shown)
VH: QVQLQESGPGLVKPSQTLSLTCTVSGYSITSDYNSHWIRQPPGKGLEWIGYIHYSGRTNYNPSLKSRVTISRDTSKNQFSLKLSSVTAADTAVYYCARNYGSIYVNYFDYWGQGTLVTVSS
VL: EIVLTQSPATLSLSPGERATLSCSASSSVSYMYWYQQKPGQAPRPLIYRTSNLASGIPARFSGSGSGTDFTLTISSLEPEDFAVYYCQQYHSYPTFGGGTKVEIK
notes: IgG1 kappa
B10: SA301a HC-S56T (antibody, name in Kabat numbering, V domains shown)
VH: QVQLQESGPGLVKPSQTLSLTCTVSGYSITSDYNSHWIRQPPGKGLEWIGYIHYSGTTNYNPSLKSRVTISRDTSKNQFSLKLSSVTAADTAVYYCARNYGSIYVNYFDYWGQGTLVTVSS
VL: EIVLTQSPATLSLSPGERATLSCSASSSVSYMYWYQQKPGQAPRPLIYRTSNLASGIPARFSGSGSGTDFTLTISSLEPEDFAVYYCQQYHSYPTFGGGTKVEIK
notes: IgG1 kappa
B11: SA301a HC-S56D (antibody, name in Kabat numbering, V domains shown)
VH: QVQLQESGPGLVKPSQTLSLTCTVSGYSITSDYNSHWIRQPPGKGLEWIGYIHYSGDTNYNPSLKSRVTISRDTSKNQFSLKLSSVTAADTAVYYCARNYGSIYVNYFDYWGQGTLVTVSS
VL: EIVLTQSPATLSLSPGERATLSCSASSSVSYMYWYQQKPGQAPRPLIYRTSNLASGIPARFSGSGSGTDFTLTISSLEPEDFAVYYCQQYHSYPTFGGGTKVEIK
notes: IgG1 kappa
B12: SA301a HC-S56P (antibody, name in Kabat numbering, V domains shown)
VH: QVQLQESGPGLVKPSQTLSLTCTVSGYSITSDYNSHWIRQPPGKGLEWIGYIHYSGPTNYNPSLKSRVTISRDTSKNQFSLKLSSVTAADTAVYYCARNYGSIYVNYFDYWGQGTLVTVSS
VL: EIVLTQSPATLSLSPGERATLSCSASSSVSYMYWYQQKPGQAPRPLIYRTSNLASGIPARFSGSGSGTDFTLTISSLEPEDFAVYYCQQYHSYPTFGGGTKVEIK
notes: IgG1 kappa
B13: SA301a HC-S54D (antibody, name in Kabat numbering, V domains shown)
VH: QVQLQESGPGLVKPSQTLSLTCTVSGYSITSDYNSHWIRQPPGKGLEWIGYIHYDGSTNYNPSLKSRVTISRDTSKNQFSLKLSSVTAADTAVYYCARNYGSIYVNYFDYWGQGTLVTVSS
VL: EIVLTQSPATLSLSPGERATLSCSASSSVSYMYWYQQKPGQAPRPLIYRTSNLASGIPARFSGSGSGTDFTLTISSLEPEDFAVYYCQQYHSYPTFGGGTKVEIK
notes: IgG1 kappa
B14: SA301a HC-S54A (antibody, name in Kabat numbering, V domains shown)
VH: QVQLQESGPGLVKPSQTLSLTCTVSGYSITSDYNSHWIRQPPGKGLEWIGYIHYAGSTNYNPSLKSRVTISRDTSKNQFSLKLSSVTAADTAVYYCARNYGSIYVNYFDYWGQGTLVTVSS
VL: EIVLTQSPATLSLSPGERATLSCSASSSVSYMYWYQQKPGQAPRPLIYRTSNLASGIPARFSGSGSGTDFTLTISSLEPEDFAVYYCQQYHSYPTFGGGTKVEIK
notes: IgG1 kappa
B15: SA301a HC-S56M (antibody, name in Kabat numbering, V domains shown)
VH: QVQLQESGPGLVKPSQTLSLTCTVSGYSITSDYNSHWIRQPPGKGLEWIGYIHYSGMTNYNPSLKSRVTISRDTSKNQFSLKLSSVTAADTAVYYCARNYGSIYVNYFDYWGQGTLVTVSS
VL: EIVLTQSPATLSLSPGERATLSCSASSSVSYMYWYQQKPGQAPRPLIYRTSNLASGIPARFSGSGSGTDFTLTISSLEPEDFAVYYCQQYHSYPTFGGGTKVEIK
notes: IgG1 kappa
B16: SA301a HC-N58Y (antibody, name in Kabat numbering, V domains shown)
VH: QVQLQESGPGLVKPSQTLSLTCTVSGYSITSDYNSHWIRQPPGKGLEWIGYIHYSGSTYYNPSLKSRVTISRDTSKNQFSLKLSSVTAADTAVYYCARNYGSIYVNYFDYWGQGTLVTVSS
VL: EIVLTQSPATLSLSPGERATLSCSASSSVSYMYWYQQKPGQAPRPLIYRTSNLASGIPARFSGSGSGTDFTLTISSLEPEDFAVYYCQQYHSYPTFGGGTKVEIK
notes: IgG1 kappa
B17: SA301a HC-S56G (antibody, name in Kabat numbering, V domains shown)
VH: QVQLQESGPGLVKPSQTLSLTCTVSGYSITSDYNSHWIRQPPGKGLEWIGYIHYSGGTNYNPSLKSRVTISRDTSKNQFSLKLSSVTAADTAVYYCARNYGSIYVNYFDYWGQGTLVTVSS
VL: EIVLTQSPATLSLSPGERATLSCSASSSVSYMYWYQQKPGQAPRPLIYRTSNLASGIPARFSGSGSGTDFTLTISSLEPEDFAVYYCQQYHSYPTFGGGTKVEIK
notes: IgG1 kappa
B18: SA301a HC-S56F (antibody, name in Kabat numbering, V domains shown)
VH: QVQLQESGPGLVKPSQTLSLTCTVSGYSITSDYNSHWIRQPPGKGLEWIGYIHYSGFTNYNPSLKSRVTISRDTSKNQFSLKLSSVTAADTAVYYCARNYGSIYVNYFDYWGQGTLVTVSS
VL: EIVLTQSPATLSLSPGERATLSCSASSSVSYMYWYQQKPGQAPRPLIYRTSNLASGIPARFSGSGSGTDFTLTISSLEPEDFAVYYCQQYHSYPTFGGGTKVEIK
notes: IgG1 kappa
B19: SA301a HC-N58V (antibody, name in Kabat numbering, V domains shown)
VH: QVQLQESGPGLVKPSQTLSLTCTVSGYSITSDYNSHWIRQPPGKGLEWIGYIHYSGSTVYNPSLKSRVTISRDTSKNQFSLKLSSVTAADTAVYYCARNYGSIYVNYFDYWGQGTLVTVSS
VL: EIVLTQSPATLSLSPGERATLSCSASSSVSYMYWYQQKPGQAPRPLIYRTSNLASGIPARFSGSGSGTDFTLTISSLEPEDFAVYYCQQYHSYPTFGGGTKVEIK
notes: IgG1 kappa
B20: SA301a HC-N58T (antibody, name in Kabat numbering, V domains shown)
VH: QVQLQESGPGLVKPSQTLSLTCTVSGYSITSDYNSHWIRQPPGKGLEWIGYIHYSGSTTYNPSLKSRVTISRDTSKNQFSLKLSSVTAADTAVYYCARNYGSIYVNYFDYWGQGTLVTVSS
VL: EIVLTQSPATLSLSPGERATLSCSASSSVSYMYWYQQKPGQAPRPLIYRTSNLASGIPARFSGSGSGTDFTLTISSLEPEDFAVYYCQQYHSYPTFGGGTKVEIK
notes: IgG1 kappa
B21: SA301a HC-S56H (antibody, name in Kabat numbering, V domains shown)
VH: QVQLQESGPGLVKPSQTLSLTCTVSGYSITSDYNSHWIRQPPGKGLEWIGYIHYSGHTNYNPSLKSRVTISRDTSKNQFSLKLSSVTAADTAVYYCARNYGSIYVNYFDYWGQGTLVTVSS
VL: EIVLTQSPATLSLSPGERATLSCSASSSVSYMYWYQQKPGQAPRPLIYRTSNLASGIPARFSGSGSGTDFTLTISSLEPEDFAVYYCQQYHSYPTFGGGTKVEIK
notes: IgG1 kappa

For the test, the target named is T1, human IL-18BP. Description: BLI, apparent KD. For orientation: BLI is a label-free optical method that tracks binding on a fibre tip over time.
In the case of B1, the Kd was found to be 0.46 nM.
For the molecule B2, the Kd was found to be 0.56 nM.
As to B3, the Kd is 0.36 nM.
Consider B4, for which the Kd was 0.2 nM.
In the case of B5 it was 1.37 nM.
B6: the Kd came to 0.64 nM.
Regarding B7, the Kd is 0.48 nM.
As for B8, the Kd stood at 0.48 nM.
Regarding B9, the Kd is 0.17 nM.
With B10, the Kd came out at 0.45 nM.
With B11, the Kd is 0.62 nM.
With B12, the Kd was 0.97 nM.
For B13, the Kd came out at 0.22 nM.
For B14 the value was 0.11 nM.
As to B15, the Kd was 0.46 nM.
For B16 the value was 0.41 nM; for B17, 0.46 nM.
On to B18, for which the Kd turned out to be 0.7 nM.
Take B19: the Kd is 0.44 nM.
As to B20, the Kd was determined as 0.47 nM.
B21: the Kd turned out to be 0.55 nM.
